Measurements reported in paper PMC8194828.

Assays:
[1] = system: PIP4K2A (WT) (Homo sapiens); experiment: EMSA; settings: EMSA 60 min 16 C, 5 ug yeast tRNA, 40 U RNase inhibitor; fluorescent: 500 mM NaCl, 10 mM Tris pH 7.5, 10% glycerol; radioactive: 30 mM KCl, 1 mM MgCl2, 40 mM …
[2] = system: PIP4K2A G131L Y138F (kinase dead) (Homo sapiens); experiment: EMSA; settings: EMSA 60 min 16 C, 5 ug yeast tRNA, 40 U RNase inhibitor; fluorescent: 500 mM NaCl, 10 mM Tris pH 7.5, 10% glycerol; radioactive: 30 mM KCl, 1 mM MgCl2, 40 mM …

Substance	Kd [1] [nM]	Kd [2] [nM]
RAD51 3'UTR	750	–
RAD51-short (5' proximal 35 bases of RAD51 3'UTR)	500	850
